From paper doi:10.1101/2022.09.07.507024

Target: FMAL-labeled F-actin (rabbit skeletal muscle) (rabbit) (UniProt P68135)
Test: FRET or BRET

| Substance | change of FRET against WT at 2.5 uM C0-C2 (direction not told) [%] | increase of FRET over WT at 2.5 uM C0-C2 [%] | other results |
| --- | --- | --- | --- |
| TMR-C0-C2^(Cys249, L349R), PKA-phosphorylated (domain or fragment) | 31 |  |  |
| TMR-C0-C2^(P330C, L349R), unphosphorylated (domain or fragment) |  | 89 |  |
| TMR-C0-C2^(P330C, R282W), PKA-phosphorylated (domain or fragment) |  | 105 |  |
| TMR-C0-C2^(P330C, T59A), unphosphorylated (domain or fragment) |  | 21 |  |
| TMR-C0-C2^(S85C, E334K), PKA-phosphorylated (domain or fragment) |  |  | FRET as percent of WT at 2.5 uM C0-C2 (% of wild type FRET): 45 |

More lines, main results first:

| change of FRET against WT at 2.5 uM C0-C2 (direction not told) [%] | increase of FRET over WT at 2.5 uM C0-C2 [%] | Substance | other results |
| --- | --- | --- | --- |
| 10 |  | TMR-C0-C2^(Cys249, L349R), unphosphorylated (domain or fragment) |  |
|  | 74 to 160 | TMR-C0-C2^(Cys249, L352P), PKA-phosphorylated (domain or fragment) |  |
|  | 166 | TMR-C0-C2^(P330C, L349R), PKA-phosphorylated (domain or fragment) |  |
|  | 74 to 160 | TMR-C0-C2^(P330C, L352P), PKA-phosphorylated (domain or fragment) |  |
| 4 |  | TMR-C0-C2^(S85C, L349R), PKA-phosphorylated (domain or fragment) |  |
| 22 |  | TMR-C0-C2^(S85C, L349R), unphosphorylated (domain or fragment) |  |
